From the DeepSol protein solubility set

Assay: soluble on expression in E. coli; label from the status in PepcDB or PDB records

Sequence | soluble on expression in E. coli
MGSDKIHHHHHHMAVILFDIDGTLIDSTDQMTEAIHLAMEDMPHLVKPSKASVQSSYGLAGNAFWRKAIPDASENDIKEIRRKRHHHLEQTMQNQDVLFDGIRELLEQLTNQGHIVSTASNCGVHYLNLVLDSQNIRSYFTSPKCLESVNGKQKADILAAHREEFSEVDYLMVGDRSSDVEAARLQNMPVAICCFGFGTEQEWKTADHQLETPLDLLKFV | not soluble
DKGTALLVNRSLRFGERTAEELMTPRVKIVTLSTTDTVADLIDTASRTGFSRFPVVESDLDDAVGVVHIKHAFAVPAHRRRTARLNSLAQKVPVVPSSLDGDALMERIRSDGMQVAFVVDEYGGTAGMVTMEDLIEEIVGDVR | not soluble
MRGIVTIDGPSASGKSSVARRVAAALGVPYLSSGLLYRAAAFLALRAGVDPGDEEGLLALLEGLGVRLLAQAEGNRVLADGEDLTSFLHTPEVDRVVSAVARLPGVRAWVNRRLKEVPPPFVAEGRDMGTAVFPEAAHKFYLTASPEVRAWRRARERPQAYEEVLRDLLRRDERDKAQSAPAPDALVLDTGGMTLDEVVAWVLAHIRR | soluble
MSRTILQPGQIEAAANIPPHLHQPSRDLFARRGERLLQLAEGHPMGDYLRLVAGLCRLQQALLDNPPALAPLDPERLRKSREHGMPPLAYDLLVREGAWLPWLDALLAGYPAPANAAVGAALEQLREAEEGQRKAWAIALLSGQFDLLPAALVPFLGAALQVAWSHWLLGLEEGAVVETESRTLCPACGSPPMAGMIRQGGKETGLRYLSCSLCACEWHYVRIKCSHCEESKHLAYLSLEHDGQPAEKAVLRAETCPSCQGYLKQFYLEFDRHADALADDLASLALDMRLAEDGYLRRSPNLLLAPGGE | soluble
MSLTFELYSGATFFRSRSAATKKVRDMQKERLKYVQEVYKVLATYVNFPKVCLPELIEKSIYEITEEEIVKKAEELRKIWGLDLISPVPNLIQLAEQNGVIISEANMSNPTLDAVSRWMIGRPFIMLTDNHESAVRRRFNVAHELGHILLHNGVESIHEYSQTELKNIIEYQANLFAAHFLLPSAAFSDSLLSISLEYYIDLKKYWKVSLQSMIQKIYTLALINDDQRLYLNKRIAKNKWKTKEPYDEQLTIEQPEVFQKVYHMILEHQVIPASQLNQAFKLPKEEIEKILGTAIQTEQDKTEIVLELLRSNKEGHHHHHH | soluble
MPSTDFADIPAAKKMKIDTCVLRFAKLTENALEPVRGSAKAAGVDLRSAYDVVVPARGKAIVKTDLQVQVPEGSYGRVAPRSGLAVKNFIDVGAGVVDEDYRGNLGVVLFNHSDVDFEVKHGDRIAQFICERIFYPQLVMVDKLEDTERGEAGFGSTGVK | soluble
KTNTEQFCSDCHMNDVVPEYRASAHYSNRSGVKAVCADCHVPHEFAPKMLRKLQASTEVYAHLTGKVDNKEKFEAHRLAMAEREWARMKANNSQECRNCHNFEDMDFTQQKTVAQQMHSRAETENKTCIDCHKGIAHNLPHMEKVQKSFIPDDMIKKTEKATEIK | not soluble
MSKFTIGPLPCKNPESFTKLSAKKDTVRKTEPVEVVCRNVEGENNGECYKIKAPKTPFIINHLEKNYIPKPKETTKKRRAGEAGGVKREHSTSESDDQLEDANQPSTSSQQSSSRKKQRNQQDI | not soluble
MYPNQQFMRGKVRDLPDSGVIYLNRIKPIAQEFQQETTAEVEVSVQNIPRHGKSPSSFEKYNSVEERSPTRLPMITTSTTAPKILIEKKVNQQKQEFQKSKQSQLSVPEEAELDRLLDDLLKSDNIPKVILDFFFKMKMIQNFQKTLQLAKIGRRSSKRHVGAYKPKVISFDGTARVNKQHARAHASPTSIGLNPIKTYAYGSSSSQNRGPDFDPWERMGQKALCNLLGTLLLELERIWEHMGGFIDTESPAFFVNETLAQQHIACVFCNKLFNMPQTWEKAQNALNLAGCSNLGGAKKACNGIVNNANLTESFPNMLPHNVQLKDLACKKYCKEQ | soluble
MGSDKIHHHHHHMVSIRKSLLQFVFAGSYMKRWNDKLRPVELLEVDKQAHKMIVAWLLYQQNSDDLDDTSRLRLGSDIIEGGIFDYFYRLVITDIKPPVFYRIKDNAQHYAQLSAWVLDELEPLVQPLGEDFWGRMRGWVQRPEKNSRADRILDAAHLFASNWEFRLIESLNRFDDEIEDIGASFDAKLAGFDDLKGMDSLRHATGAVGRFAALCGQLRFQKRWSQTPRIPETSVLGHMFLVACYSYFFSLAVNACGARRQNNFFIGLFHDLPELLTRDIISPVKKSVEELDAVIKEYEEAELRRKVLNPLEEEGFGGIAARLSYYLGLEVGSEFTEAVVDNGNVLAVDFELLQSRYNHDRFDPRDGRMLKTCDTLAAFIEAYTAVRNGISSDQLQAALWRLRDKNRRTVIGPVHVGALFADFD | not soluble
MGSDKIHHHHHHMSDRNTSNSLTLKERMLSAGAGSVLTSLILTPMDVVRIRLQQQQMIPDCSCDGAAEVPNAVSSGSKMKTFTNVGGQNLNNAKIFWESACFQELHCKNSSLKFNGTLEAFTKIASVEGITSLWRGISLTLLMAIPANMVYFSGYEYIRDVSPIASTYPTLNPLFCGAIARVFAATSIAPLELVKTKLQSIPRSSKSTKTWMMVKDLLNETRQEMKMVGPSRALFKGLEITLWRDVPFSAIYWSSYELCKERLWLDSTRFASKDANWVHFINSFASGCISGMIAAICTHPFDVGKTRWQISMMNNSDPKGGNRSRNMFKFLETIWRTEGLAALYTGLAARVIKIRPSCAIMISSYEISKKVFGNKLHQ | not soluble
STDDKDVLRDVWFGRIPTCFTLYQDEITEREAEPYYLLLPRVSYLTLVTDKVKKHFQKVMRQEDVSEIWFEYEGTPLKWHYPIGLLFDLLASSSALPWNITVHFKSFPEKDLLHCPCKDAVEAHFMSCVKEADALKHKSQVINEMQRKDHKQLWMGLQNDLTSFGPSTGNSWNTLQKKMDFVISLLEYIRPQLNGLSFRSCSVLWPQMDSCIPLEIS | soluble
MTVRILAVCGNGQGSSMIMKMKVDQFLTQSNIDHTVNSCAVGEYKSELSGADIIIASTHIAGEITVTGNKYVVGVRNMLSPADFGPKLLEVIKAHFPQDVK | not soluble
MSDDPIAASQAVVLSQAQAQNSQYALARTFATQKVSLEESVLSQVTTAIQTAQEKIVYAGNGTLSDDDRASLATDLQGIRDQLMNLANSTDGNGRYIFAGYKTEAAPFDQATGGYHGGEKSVTQQVDSARTMVIGHTGAQIFNSITSNAVPEPDGSDSEKNLFVMLDTAIAALKTPVEGNNVEKEKAAAAIDKTNRGLKNSLNNVLTVRAELGTQLSELSTLDSLGSDRALGQKLQMSNLVDVDWNSV | soluble
MLTSDPSESTAHLQRTISNLSARNAKLAELLKASRDKLSILQDQLEDLAAPPSTYGTFLEFSGGRETAEVFTAGRHMRLRISPDVEKAELVPGVQVRLGEASQVVEVCDISTTGQLATLVELLADNRGLICDHTGEERVVKLAAALTEGVDKLPKAGDTLLVDPRAGYAFEVIPKTEVSTLA | soluble
MWERSLRDTMRGRTSTLKVAILCFEKDRPKLEALKEILGRSYEVEFVDYSKDVWDDVLQYDCIVAYLASGIVVRGICGRLRGKWKDPAVIVLDKPLKHAVVMLGGHHGGNEVAKKLEEAGLKAVITTAMEFTEGYSVGVGFRKNATADEILEAIAMALEEVGGRMEEIRVISTVDAKRDSAIVEVANRLKRPLIFVRAEEINSMDIRETKAVKIGVKNVAEACAIYASNSGELILPKRVYGGVTVAIAW | not soluble
MGSDKIHHHHHHMIMKVVVKVGSNLLVGSSGLRKSYIAELCREVARLKSQGHEISIITSGARAAGFTYLGKGKRTQDLHIKQALCAVGQVQLMKVYENAFDFYGIKIAQILLTRDTFSNRKRYLNLRNTLIGLSEFDVVPIVNENDTVATEEITLGDNDTLAAMFSIAWDADFLVLFTTVDGVIDENGKLVERFDESVKLKDMGKSSWGTGGIRSKIESALMASRCGVKATICSGNDVSNLTRFVKGEPVGTVFEPQGRLKAKKAWIAFLSEPAGKIYVNKGAEEALKSGNSLLPVGVTGVEGTFDVGDVVEIVNEEGELVGRGIVNYSSSDLEKIAGHKSSDLKKILGYEGNKVVVHIDNMWVA | not soluble
MSLELLIPQLEFLNEEGAQAEVWALSRIFLDTLVKETGQKVKAIFPDAGAAALLKYQWTDAEFKCASLSDRKPVDVEDEVVVMIIPDHQMVESVERIASQLSDDPIRPLVMWNPRLVSGDVGVGFNVRNLRRNFLSTFTTVYSMRPLPTGAVFRQYPGKWKVFYDDPKRPNRYLLARELVSRPDATDIEIIFGGGDEQSDEAPSLMNNVMGVFSSVSRFMRVISKEGHHHHHH | not soluble
GSHADLLRKNAEVTKQVSMARQAQVDLEREKKELEDSLERISDQGQRKTQEQLEVLESLKQELATSQRELQVLQGSLETSAQSEANWAAEFAELEKERDSLVSGAAH | soluble
MYYERPVFDIVDTWEIREREVLKPVLSVAEEDYCYFVQNTVASAQRSWVDLVANLFNSPDSDIDDALNRFADAPCLHGPTLEPMNLILKGSPMYVYCSFEEMRSCATKRFYEGISNRGVVICTVPPYAEGVTRDDMSVWQNQACVNTCSGKNDLDAYIAFLPTSSLQESSYWHTKNGIYSFLAPSQTDAFCCEILCVGRALFEDRSRKEKLRNCLLKLLNYRLKLLFAAALEHHHHHH | not soluble
MGSDKIHHHHHHMSQHVLIAGGGIVGCLTAMELVSRGCRVTIVERNNIASQTSGESSWAGTGIMFPLLPWMYSDHVNTLTHYGASLYPDICARLFKETGIDPQMLDSGFLLLPPFDREAALTWCARYQVKAEDTKAAGFGVQSPNGQDALWLPDVKQVRPPCLMHALRTWLENHHVRLLERTELMPLSPGTSRLTAWATTSGELLEADRFIVTSGAWSFELLKEVASKLQIKPMRGQILLYKPEHNPRAVIFREDFYLVPRRDGYLLAGSTLEDVGFDPSVTDTVRDAIRAKAAALMPELADLPILKHWSGLRPGTPENLPIISPHPGIENLYLNTGHFRYGLTMGPASASLAAALVCGETPWTDPTPFSLPQ | not soluble
MIKIELKNKDNQIITGRIDHEKPEAPFVAEGDTLAVLAIKQYLYQVGDKIVVTYTGATPYLMVQLDETLAPSLIYLKEKVWEYQIPLEESARKAFVDTAFHSARHQIMVRQAHTFEKDNYQNLSMNTHDQKEYSGAYPHAYANVETRDDAVFFAKNAIDSKFGNLSHGSYPFASWGINQKKEAQLTIDFGRPVETDWIRLLFRADYPHDSYWEEVTLAFSDGEERVVATTNTTCFQEIKFPMKTTQTLTLKCLRKALDSSPFPALTQIEVFGRNK | soluble
MAHHHHHHMPRSEKQSEEDDWELHPLFLSKIPNKKDINKNQALSALITLINEEEEKEVFSYEPRRKNLKKKITEKGQIIYKKDRRNFYEPYQQNKNDKINYFEKKTLGGHSDVSKEEEVMDVEVDEEGTPLTAAQQGGDHSGQNVSSSQQATDETSIGEVLVCLSMINLK | not soluble
MSLTYYLSIDYGGTNTKALIFDKLGHQIAVSSFETLKNETQSGHRQVNLVKTWNAITSAIREVIQISKLSPEQISAVACIGHGKGLYLLDNKLEPLEQGILSTDNRAKDLAQYFESKLDNIWELTRQHIFPSQSPVILRWLKDYQPETYKSIGAVLSAKDFIRYKLTGKVQQEYGDASGNHWINFQTGTYDPAILDFFGIREIENSLPELIDSADLVPGGISSQAAKETGLVEGTPVVGGLFDIDACALGSGVLESDTFSVISGTWNINTYPSLKPAKQDSGLMTSYFPDRRYLLEASSPTSAGNLNFMLKMLMHQEIDNAKSSGGSIYDNLEEFLTHTDATHHGLIFFPFLYGSNTSQDASACFFGLTTKSTKSQMIRAVYEGIAFAHKQHITDLIKSRGSVPKIIRFSGGATNSPAWMQMFSDILNFPIETVEGTELGGLGGAILARHALDKISLKEAVQDMVRVKAIYKPQLSEVKGYKKKYHAYQKLLETLDPIWSELGHLNEGHHHHHH | soluble
